Data: patent US20230272029A1, “CO-AGONISTS AT GLP-1 AND GIP RECEPTORS SUITABLE FOR ORAL DELIVERY” (Novo Nordisk A/S, priority 2020, published 2023)
Starred links: 1 amine or outer side, 2 acyl side, 3 side chain; linkers in the order of their positions; H or OH if unused. Non-standard residues stand in square brackets, D forms with d. Groups on a side chain read outwards from the residue. No end group written: not given here. *: point of attachment. C18 diacid = O=C(O)CCCCCCCCCCCCCCCCC(=O)*; γGlu = O=C(O)[C@H](CCC(=O)[*:2])N[*:1]; εLys = N[C@@H](CCCCN[*:1])C(=O)[*:2]; Aib = CC(C)(N)C(=O)O

What was measured:
[1] = target: human GLP-1 receptor (human, UniProt P43220 24-463); test: cell-based or functional assay
[2] = target: T1, human GIP receptor (human, UniProt P48546 22-466); test: cell-based or functional assay
T1 sequence (looked up): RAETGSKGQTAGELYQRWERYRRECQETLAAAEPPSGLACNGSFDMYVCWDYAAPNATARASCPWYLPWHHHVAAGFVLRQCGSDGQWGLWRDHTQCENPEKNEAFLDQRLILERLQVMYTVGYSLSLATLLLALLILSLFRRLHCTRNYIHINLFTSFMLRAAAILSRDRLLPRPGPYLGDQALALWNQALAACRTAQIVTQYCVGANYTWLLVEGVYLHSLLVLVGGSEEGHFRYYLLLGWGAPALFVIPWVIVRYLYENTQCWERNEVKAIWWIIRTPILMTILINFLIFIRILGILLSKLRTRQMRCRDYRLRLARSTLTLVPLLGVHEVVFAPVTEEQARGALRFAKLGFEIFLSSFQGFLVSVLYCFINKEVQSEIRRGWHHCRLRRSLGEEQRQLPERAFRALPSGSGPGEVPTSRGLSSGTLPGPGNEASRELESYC

B1: Compound No. 38 (peptide)
peptide: Y[Aib]EGTFTSDYSIYLEEK([εLys-εLys-γGlu-C18 diacid])AAREFINWLLAGGPSSGAPPPS-OH
modifications: N-terminus assumed
SMILES: CC[C@H](C)[C@H](NC(=O)[C@H](Cc1ccccc1)NC(=O)[C@H](CCC(=O)O)NC(=O)[C@H](CCCNC(=N)N)NC(=O)[C@H](C)NC(=O)[C@H](C)NC(=O)[C@H](CCCCNC(=O)[C@@H](N)CCCCNC(=O)[C@@H](N)CCCCNC(=O)CC[C@H](NC(=O)CCCCCCCCCCCCCCCCC(=O)O)C(=O)O)NC(=O)[C@H](CCC(=O)O)NC(=O)[C@H](CCC(=O)O)NC(=O)[C@H](CC(C)C)NC(=O)[C@H](Cc1ccc(O)cc1)NC(=O)[C@@H](NC(=O)[C@H](CO)NC(=O)[C@H](Cc1ccc(O)cc1)NC(=O)[C@H](CC(=O)O)NC(=O)[C@H](CO)NC(=O)[C@@H](NC(=O)[C@H](Cc1ccccc1)NC(=O)[C@@H](NC(=O)CNC(=O)[C@H](CCC(=O)O)NC(=O)C(C)(C)NC(=O)[C@@H](N)Cc1ccc(O)cc1)[C@@H](C)O)[C@@H](C)O)[C@@H](C)CC)C(=O)N[C@@H](CC(N)=O)C(=O)N[C@@H](Cc1c[nH]c2ccccc12)C(=O)N[C@@H](CC(C)C)C(=O)N[C@@H](CC(C)C)C(=O)N[C@@H](C)C(=O)NCC(=O)NCC(=O)N1CCC[C@H]1C(=O)N[C@@H](CO)C(=O)N[C@@H](CO)C(=O)NCC(=O)N[C@@H](C)C(=O)N1CCC[C@H]1C(=O)N1CCC[C@H]1C(=O)N1CCC[C@H]1C(=O)N[C@@H](CO)C(=O)O
hGLP-1R, CRE Luc 0% HSA EC50 (pM) [1]: 3.1 pM | hGLP-1R, CRE Luc 1% HSA EC50 (pM) [1]: 259 pM | hGIPR, CRE Luc 0% HSA EC50 (pM) [2]: 12.4 pM | hGIPR, CRE Luc 1% HSA EC50 (pM) [2]: 815 pM

B2: Compound No. 13 (peptide)
peptide: Y[Aib]EGTFTSDYSIYLEK([εLys-εLys-γGlu-C18 diacid])QAAREFIEWLLRGGPESGAPPPS-OH
modifications: N-terminus assumed
SMILES: CC[C@H](C)[C@H](NC(=O)[C@H](Cc1ccccc1)NC(=O)[C@H](CCC(=O)O)NC(=O)[C@H](CCCNC(=N)N)NC(=O)[C@H](C)NC(=O)[C@H](C)NC(=O)[C@H](CCC(N)=O)NC(=O)[C@H](CCCCNC(=O)[C@@H](N)CCCCNC(=O)[C@@H](N)CCCCNC(=O)CC[C@H](NC(=O)CCCCCCCCCCCCCCCCC(=O)O)C(=O)O)NC(=O)[C@H](CCC(=O)O)NC(=O)[C@H](CC(C)C)NC(=O)[C@H](Cc1ccc(O)cc1)NC(=O)[C@@H](NC(=O)[C@H](CO)NC(=O)[C@H](Cc1ccc(O)cc1)NC(=O)[C@H](CC(=O)O)NC(=O)[C@H](CO)NC(=O)[C@@H](NC(=O)[C@H](Cc1ccccc1)NC(=O)[C@@H](NC(=O)CNC(=O)[C@H](CCC(=O)O)NC(=O)C(C)(C)NC(=O)[C@@H](N)Cc1ccc(O)cc1)[C@@H](C)O)[C@@H](C)O)[C@@H](C)CC)C(=O)N[C@@H](CCC(=O)O)C(=O)N[C@@H](Cc1c[nH]c2ccccc12)C(=O)N[C@@H](CC(C)C)C(=O)N[C@@H](CC(C)C)C(=O)N[C@@H](CCCNC(=N)N)C(=O)NCC(=O)NCC(=O)N1CCC[C@H]1C(=O)N[C@@H](CCC(=O)O)C(=O)N[C@@H](CO)C(=O)NCC(=O)N[C@@H](C)C(=O)N1CCC[C@H]1C(=O)N1CCC[C@H]1C(=O)N1CCC[C@H]1C(=O)N[C@@H](CO)C(=O)O
hGLP-1R, CRE Luc 0% HSA EC50 (pM) [1]: 7.4 pM | hGLP-1R, CRE Luc 1% HSA EC50 (pM) [1]: 204 pM | hGIPR, CRE Luc 0% HSA EC50 (pM) [2]: 13.9 pM | hGIPR, CRE Luc 1% HSA EC50 (pM) [2]: 257 pM

B3: Compound No. 15 (peptide)
peptide: Y[Aib]EGTFTSDYSILLEK([εLys-εLys-γGlu-C18 diacid])QAAREFINWLLAGGPSSGAPPPS-OH
modifications: N-terminus assumed
SMILES: CC[C@H](C)[C@H](NC(=O)[C@H](Cc1ccccc1)NC(=O)[C@H](CCC(=O)O)NC(=O)[C@H](CCCNC(=N)N)NC(=O)[C@H](C)NC(=O)[C@H](C)NC(=O)[C@H](CCC(N)=O)NC(=O)[C@H](CCCCNC(=O)[C@@H](N)CCCCNC(=O)[C@@H](N)CCCCNC(=O)CC[C@H](NC(=O)CCCCCCCCCCCCCCCCC(=O)O)C(=O)O)NC(=O)[C@H](CCC(=O)O)NC(=O)[C@H](CC(C)C)NC(=O)[C@H](CC(C)C)NC(=O)[C@@H](NC(=O)[C@H](CO)NC(=O)[C@H](Cc1ccc(O)cc1)NC(=O)[C@H](CC(=O)O)NC(=O)[C@H](CO)NC(=O)[C@@H](NC(=O)[C@H](Cc1ccccc1)NC(=O)[C@@H](NC(=O)CNC(=O)[C@H](CCC(=O)O)NC(=O)C(C)(C)NC(=O)[C@@H](N)Cc1ccc(O)cc1)[C@@H](C)O)[C@@H](C)O)[C@@H](C)CC)C(=O)N[C@@H](CC(N)=O)C(=O)N[C@@H](Cc1c[nH]c2ccccc12)C(=O)N[C@@H](CC(C)C)C(=O)N[C@@H](CC(C)C)C(=O)N[C@@H](C)C(=O)NCC(=O)NCC(=O)N1CCC[C@H]1C(=O)N[C@@H](CO)C(=O)N[C@@H](CO)C(=O)NCC(=O)N[C@@H](C)C(=O)N1CCC[C@H]1C(=O)N1CCC[C@H]1C(=O)N1CCC[C@H]1C(=O)N[C@@H](CO)C(=O)O
hGLP-1R, CRE Luc 0% HSA EC50 (pM) [1]: 5 pM | hGLP-1R, CRE Luc 1% HSA EC50 (pM) [1]: 130 pM | hGIPR, CRE Luc 0% HSA EC50 (pM) [2]: 7.1 pM | hGIPR, CRE Luc 1% HSA EC50 (pM) [2]: 138 pM

B4: Compound No. 14 (peptide)
peptide: Y[Aib]EGTFTSDYSIALEK([εLys-εLys-γGlu-C18 diacid])QAAREFINWLLAGGPSSGAPPPS-OH
modifications: N-terminus assumed
SMILES: CC[C@H](C)[C@H](NC(=O)[C@H](CO)NC(=O)[C@H](Cc1ccc(O)cc1)NC(=O)[C@H](CC(=O)O)NC(=O)[C@H](CO)NC(=O)[C@@H](NC(=O)[C@H](Cc1ccccc1)NC(=O)[C@@H](NC(=O)CNC(=O)[C@H](CCC(=O)O)NC(=O)C(C)(C)NC(=O)[C@@H](N)Cc1ccc(O)cc1)[C@@H](C)O)[C@@H](C)O)C(=O)N[C@@H](C)C(=O)N[C@@H](CC(C)C)C(=O)N[C@@H](CCC(=O)O)C(=O)N[C@@H](CCCCNC(=O)[C@@H](N)CCCCNC(=O)[C@@H](N)CCCCNC(=O)CC[C@H](NC(=O)CCCCCCCCCCCCCCCCC(=O)O)C(=O)O)C(=O)N[C@@H](CCC(N)=O)C(=O)N[C@@H](C)C(=O)N[C@@H](C)C(=O)N[C@@H](CCCNC(=N)N)C(=O)N[C@@H](CCC(=O)O)C(=O)N[C@@H](Cc1ccccc1)C(=O)N[C@H](C(=O)N[C@@H](CC(N)=O)C(=O)N[C@@H](Cc1c[nH]c2ccccc12)C(=O)N[C@@H](CC(C)C)C(=O)N[C@@H](CC(C)C)C(=O)N[C@@H](C)C(=O)NCC(=O)NCC(=O)N1CCC[C@H]1C(=O)N[C@@H](CO)C(=O)N[C@@H](CO)C(=O)NCC(=O)N[C@@H](C)C(=O)N1CCC[C@H]1C(=O)N1CCC[C@H]1C(=O)N1CCC[C@H]1C(=O)N[C@@H](CO)C(=O)O)[C@@H](C)CC
hGLP-1R, CRE Luc 0% HSA EC50 (pM) [1]: 5.4 pM | hGLP-1R, CRE Luc 1% HSA EC50 (pM) [1]: 306 pM | hGIPR, CRE Luc 0% HSA EC50 (pM) [2]: 11.6 pM | hGIPR, CRE Luc 1% HSA EC50 (pM) [2]: 580 pM
